“Also recorded” adds a separate entry of the source. Where a SMILES comes first, the peptide text is derived from it. [ ]: non-standard residue; d: D form.
Experiments:
[1] = tested on: PlcR regulon (plcA promoter-lacZ fusion); test: Competition studies of PapR7-derived peptides with endogenous PapR, β-galactosidase (lacZ reporter) assay; type: cell-based, B. thuringiensis 407 Cry- plcA'Z (Bt A'Z); conditions: Bt A'Z; for reduction of plcA'Z activity: 2.5 μM peptide, added at late-exponential phase (OD600 1.8 ± 0.1), normalized to untreated cells, mean; for effect on plcA'Z activation at low cell density (in words): added at OD600 0.1 ± 0.03, quantified after 2.5 h; for IC50: late-exponential phase (OD600 1.8 ± 0.1), competition with endogenous PapR, mean ± SEM, SEM, read-out: IC50, lacZ-based reporter assay; for class of inhibitory activity throughout the competition studies: plcA'lacZ, summary of the competition studies
Procedure: Bacterial strains used in this study: B. thuringiensis 407 Cry ^- plcA′Z (Bt A’Z) and the PapR null-mutant 407 Cry ^- ΔpapR plcA’Z (Bt ΔpapR A’Z) strains, containing a transcriptional fusion between the promoter of plcA and the lacZ reporter gene (as described previously; [Gominet et al., 2001]; [Slamti and Lereclus, 2002]); B. cereus strain ATCC 14579 ([Ivanova et al., 2003]). Unless otherwise noted, cells were grown in modified LB medium (16 g/L tryptone, 8 g/L yeast extract, 5 g/L NaCl) at 37°C and stored at −80°C in LB containing 25% glycerol. Kanamycin (200 μg/mL) was used for the selection of B. thuringiensis.
Bt A’Z cells were grown overnight in LB medium. The cells were diluted 10^–3 in modified LB to a final volume of 1 L and incubated at 37°C with shaking (200 rpm) until the end of the lag or late-exponential of bacterial growth (OD600 0.1 ± 0.03; 1.8 ± 0.1, respectively). Different concentrations of synthetic peptides were added to 2 ml aliquots of culture and incubated for various times (1–24 h) before centrifugation (Eppendorf centrifuge R5810, 4000 rpm for 5 min) and quantification of β-galactosidase activity.
β-galactosidase activity was measured as described previously ([Yang et al., 2017]), with minor modifications. Briefly, 200 μL aliquots from 2 ml treated cultures were added in triplicate to a clear 96-well microtiter plate, and then OD600 was measured and β-galactosidase activity was assayed. The final results were reported as percentage of activation, which is the ratio between the Miller units obtained after addition of the PapR7 analogs. In Bt ΔpapR A’Z strain, the plcA promoter activity was very low and considered as a baseline. In Bt A’Z strain, the untreated bacteria were considered as 100% of activation and the results were normalized accordingly. Each assay was repeated at least three times.

B. cereus ATCC 14579 = type: cell-based, Bacillus cereus; conditions: n = 9; for IC50: supernatant of B. cereus ATCC 14579 cultures treated at OD600 0.1 ± 0.03 for 2.5 h, 1% human red blood cells, 30 min, 37°C, absorbance at 420 nm, mean ± SEM, SEM, read-out: IC50, hemolytic assay
Procedure: Bt A’Z or B. cereus ATCC 14579 cells were grown overnight in LB medium. The cells were diluted 10^–3 in modified LB to a final volume of 1 liter and incubated at 37°C with shaking (200 rpm) until the end of the lag phase of bacterial growth (OD600 0.1 ± 0.03). Different concentrations of synthetic peptides were added to 2 ml aliquots of culture and incubated for 2.5 h before centrifugation (Eppendorf centrifuge R5810, 4000 rpm for 5 min), separation and filtration (0.2 μm filter) of the supernatants of the treated cultures. Analyses of hemolytic activity were conducted as previously described using human red blood cells ([Tal-Gan et al., 2013b]; [Lobel et al., 2015]). Bacterial supernatants were serially diluted in Tris-buffered saline (pH 7.2, 10 mM Tris–HCl, 155 mM NaCl) with 1% human red blood cells (hRBC) suspension and were incubated for 30 min at 37°C. Hemolytic activities were measured by monitoring the absorbance at 420 nm.

[2] = target: PlcR of B. thuringiensis 407 Cry- (B. thuringiensis (endogenous in strain 407 Cry- plcA'Z))
[3] = target: PlcR of B. cereus ATCC 14579 (B. cereus (endogenous in strain ATCC 14579))
[4] = target: PlcR of B. thuringiensis 407 Cry- (B. thuringiensis (endogenous in strain 407 Cry- plcA'Z)); remark: listed apart in the source
[5] = target: PlcR of B. cereus ATCC 14579 (B. cereus (endogenous in strain ATCC 14579)); remark: listed apart in the source
[6] = target: PlcR of B. cereus ATCC 14579 (B. cereus (endogenous in strain ATCC 14579)); remark: listed apart in the source

In the case of CC(C)C[C@H](NC(=O)[C@H](CC(=O)O)NC(=O)[C@H](C)N)C(=O)N1CCC[C@H]1C(=O)N[C@@H](Cc1ccccc1)C(=O)N[C@H](CCC(=O)O)C(=O)N[C@@H](C)C(N)=O [PapR7-dE6:F7A] (H-ADLPF[dE]A-NH2; N-terminus assumed), the “reduction of plcA'Z activity” value ([1]; n = 9) is reported as 65%, the “effect on plcA'Z activation / PlcR regulon activity after 24 h (in words)” value ([1]; 10 μM peptide, added at OD600 0.1 ± 0.03, harvested after 24 h, n = 9) is reported as “blocked plcA’Z activation; also recorded: blocked the PlcR regulon activity” and the “effect on plcA'Z activation at low cell density (in words)” value ([1]; 10 μM peptide, n = 9) is reported as “blocked plcA’Z activation”. The IC50 [1] was 2570 ± 203 nM, the “class of inhibitory activity throughout the competition studies” value [1] was “very potent inhibitors” and the IC50 (B. cereus ATCC 14579) was 2500 ± 212 nM.

PapR7-dE6:dF7 (peptide) was tested, and the IC50 of inhibition of plcA'Z (β-galactosidase) activity in Bt A'Z cells, lacZ-based reporter assay, late-exponential phase; the pair that is blocked: endogenous PapR with PlcR [2] was 1680 nM, the IC50 of inhibition of the hemolytic activity (human red blood cells) of supernatants of treated B. cereus ATCC 14579 cultures; the pair that is blocked: native PapR with PlcR [3] was 1380 nM and the reduction of plcA'Z (β-galactosidase) activity in Bt A'Z cells, 2.5 μM peptide added at late-exponential phase; the pair that is blocked: endogenous PapR with PlcR [4] was 71%.

For CC(C)C[C@H](NC(=O)[C@H](CC(=O)O)NC(=O)[C@H](C)N)C(=O)N1CCC[C@H]1C(=O)N[C@@H](Cc1ccccc1)C(=O)N[C@H](CCC(=O)O)C(=O)N[C@@H](Cc1ccccc1)C(N)=O [PapR7-dE6, reference compound] (H-ADLPF[dE]F-NH2; N-terminus assumed), the “reduction of plcA'Z activity” value ([1]; n = 9) was 65%, the IC50 [1] was 977 ± 42 nM and the IC50 (B. cereus ATCC 14579) was 1050 ± 89 nM.

With PapR7-dE6:F7A (peptide) the IC50 of inhibition of plcA'Z (β-galactosidase) activity in Bt A'Z cells, lacZ-based reporter assay, late-exponential phase; the pair that is blocked: endogenous PapR with PlcR [2] was 2570 nM, the IC50 of inhibition of the hemolytic activity (human red blood cells) of supernatants of treated B. cereus ATCC 14579 cultures; the pair that is blocked: native PapR with PlcR [3] was 2500 nM and the reduction of plcA'Z (β-galactosidase) activity in Bt A'Z cells, 2.5 μM peptide added at late-exponential phase; the pair that is blocked: endogenous PapR with PlcR [4] was 65%.

Compound PapR7-dE6 (peptide) has an IC50 of inhibition of plcA'Z (β-galactosidase) activity in Bt A'Z cells, lacZ-based reporter assay; the pair that is blocked: endogenous PapR with PlcR [2] of 977 nM, an IC50 of inhibition of the hemolytic activity (human red blood cells) of supernatants of treated B. cereus ATCC 14579 cultures; the pair that is blocked: native PapR with PlcR [3] of 1050 nM and a reduction of plcA'Z (β-galactosidase) activity in Bt A'Z cells, 2.5 μM peptide added at late-exponential phase; the pair that is blocked: endogenous PapR with PlcR [4] of 65%.

PapR7-P4A:F7A (peptide) showed a reduction of the hemolytic activity (human red blood cells) of supernatants of B. cereus ATCC 14579 cultures treated with 10 μM peptide; the pair that is blocked: native PapR with PlcR [5] of 60% and a reduction of plcA'Z (β-galactosidase) activity in Bt A'Z cells, 2.5 μM peptide added at late-exponential phase; the pair that is blocked: endogenous PapR with PlcR [4] of 40%.

PapR7-F7A (peptide) gave an IC50 of inhibition of plcA'Z (β-galactosidase) activity in Bt A'Z cells, lacZ-based reporter assay; the pair that is blocked: endogenous PapR with PlcR [2] of 1680 nM, an IC50 of inhibition of the hemolytic activity (human red blood cells) of supernatants of treated B. cereus ATCC 14579 cultures; the pair that is blocked: native PapR with PlcR [3] of 2720 nM and a reduction of plcA'Z (β-galactosidase) activity in Bt A'Z cells, 2.5 μM peptide added at late-exponential phase; the pair that is blocked: endogenous PapR with PlcR [4] of 70%.

PapR7-P4A:dF7 (peptide) showed an inhibition of the hemolytic activity (human red blood cells) of supernatants of B. cereus ATCC 14579 cultures treated with 10 μM peptide; the pair that is blocked: native PapR with PlcR [6] of 83% and a reduction of plcA'Z (β-galactosidase) activity in Bt A'Z cells, 2.5 μM peptide added at late-exponential phase; the pair that is blocked: endogenous PapR with PlcR [4] of 40%.

PapR7-E6A:F7A (peptide) showed a reduction of the hemolytic activity (human red blood cells) of supernatants of B. cereus ATCC 14579 cultures treated with 10 μM peptide; the pair that is blocked: native PapR with PlcR [5] of 60% and a reduction of plcA'Z (β-galactosidase) activity in Bt A'Z cells, 2.5 μM peptide added at late-exponential phase; the pair that is blocked: endogenous PapR with PlcR [4] of 40%.

With “ADLAFEA [PapR7-P4A:F7A, second-generation PapR7-derived peptide ADLAFEA]” the “reduction of plcA'Z activity” value ([1]; n = 9) was “approximately 40%”, the “effect on plcA'Z activation at low cell density (in words)” value ([1]; 10 μM peptide, n = 9) was “drastic reduction in plcA’Z activity” and the “class of inhibitory activity throughout the competition studies” value [1] was “median to high inhibitory activities”. The “reduction of hemolytic activity” value (B. cereus ATCC 14579; 10 μM peptide, B. cereus ATCC 14579 treated at OD600 0.1 ± 0.03, human red blood cells, normalized to untreated) was roughly 60%.

— article PMC6568020, “Elucidating the Hot Spot Residues of Quorum Sensing Peptidic Autoinducer PapR by Multiple Amino Acid Replacements” (Frontiers in Microbiology, 2019)
